In publication PMC5979045:

Target: Toll-like receptor 4 (TLR4) on mouse bone marrow-derived dendritic cells (mouse (endogenous in bone marrow-derived DCs)) (UniProt Q9QUK6)
Assay: flow cytometry on cells; immature bone marrow-derived DCs of WT C57 BL/6 mice, pre-incubated with IgG1 isotype, TLR2 blocking or TLR4 blocking antibody on ice for 1 h, then stained with anti-CD11c APC, anti-TLR2-FITC, anti-TLR4-PE-Cy7 and rTs-Hsp70-PE on ice for 30 min; rTs-Hsp70-PE and TLR2-FITC or TLR4-PE-Cy7 double positive cells among CD11c+ cells

Chain of UniProt Q9QUK6 (Q9QUK6 26-835): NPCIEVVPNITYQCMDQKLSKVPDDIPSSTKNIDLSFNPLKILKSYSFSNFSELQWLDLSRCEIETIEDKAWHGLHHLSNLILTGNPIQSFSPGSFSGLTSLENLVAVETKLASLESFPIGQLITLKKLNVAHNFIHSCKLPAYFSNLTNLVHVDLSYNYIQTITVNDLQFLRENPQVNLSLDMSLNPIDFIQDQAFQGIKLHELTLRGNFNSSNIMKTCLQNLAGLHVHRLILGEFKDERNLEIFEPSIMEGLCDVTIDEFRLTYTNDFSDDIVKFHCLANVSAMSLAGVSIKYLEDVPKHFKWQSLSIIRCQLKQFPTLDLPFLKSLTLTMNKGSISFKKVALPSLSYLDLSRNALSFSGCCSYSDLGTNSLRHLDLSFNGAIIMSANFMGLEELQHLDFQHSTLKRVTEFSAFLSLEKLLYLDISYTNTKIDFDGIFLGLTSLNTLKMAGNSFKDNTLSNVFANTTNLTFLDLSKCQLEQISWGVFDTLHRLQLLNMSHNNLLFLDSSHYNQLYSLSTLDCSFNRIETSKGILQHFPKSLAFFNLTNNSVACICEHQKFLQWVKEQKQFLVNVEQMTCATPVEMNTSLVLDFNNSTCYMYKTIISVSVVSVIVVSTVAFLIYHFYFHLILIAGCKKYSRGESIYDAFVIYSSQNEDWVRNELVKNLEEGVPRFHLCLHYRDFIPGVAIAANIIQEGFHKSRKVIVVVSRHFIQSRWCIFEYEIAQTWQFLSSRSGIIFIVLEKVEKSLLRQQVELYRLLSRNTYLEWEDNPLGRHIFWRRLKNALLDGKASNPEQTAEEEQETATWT

Work on “Recombinant Trichinella spiralis Heat shock protein 70 (natural protein)” yielded a percent of TLR4+ cells on CD11c+ DCs bound by rTs-Hsp70 of 12.3%.
